The results in this text go back to article PMC6450878.

The target of assay [1] is eGFP-talin1 (human talin1) (UniProt Q9Y490). The assay can be described thus: OPTIC assay (microscopy of GFP-talin1 recruitment to clustered CEACAM3-integrin fusion proteins in 293T cells). The following applies: 293 T cells co-transfected with CEACAM3-integrin fusion constructs and GFP-talin1, infected for 1 h with Pacific Blue-labeled Ngo, read off a plot.
Assay [2] deals with CEACAM3-integrin β3 fusion construct (CEA3-ITGB3) (human) (UniProt P05106). The assay can be described thus: OPTIC (Opa protein triggered integrin clustering; recruitment of a fluorescent protein to the clustered chimeric receptor, confocal microscopy); 293T cells co-transfected with CEA3-ΔCT or a CEA3-ITGB chimera and the protein of interest fused to eGFP or mCherry, seeded on poly-L-lysine; infected 1 h with Pacific Blue-stained Opa52-expressing N. gonorrhoeae at MOI 20; fixed, stained for CEACAM3; R = maximum fluorescence at the clustered chimera / mean fluorescence of the cell; R > 2 defined as positive recruitment; n = 60 cells.

For assay [3], the target named is CEACAM3-integrin β1 fusion construct (CEA3-ITGB1) (human) (UniProt P05556). The description is as above.
In assay [4] the target is CEA3-ITGB2 C.ow (CEACAM3 fused to the cytoplasmic domain of Capsaspora owczarzaki integrin β homologue ITGB2 C.ow) (human | Capsaspora owczarzaki). Described as above.
In assay [5] the target is CEACAM3-integrin β2 fusion construct (CEA3-ITGB2) (human) (UniProt P05107). The description is as above.
In assay [6] the target is CEA3-ITGB1 C.ow (CEACAM3 fused to the cytoplasmic domain of Capsaspora owczarzaki integrin β homologue ITGB1 C.ow) (human | Capsaspora owczarzaki). Described as above.
Assay [7] addresses CEACAM3-integrin β5 fusion construct (CEA3-ITGB5) (human) (UniProt P18084). The assay is described as above.
The target in assay [8] is CEA3-ITGB1 Y783A (human) (UniProt P05556). Described as above.

Sequence of UniProt Q9Y490 (Q9Y490 whole entry, looked up, the tested form may be a part): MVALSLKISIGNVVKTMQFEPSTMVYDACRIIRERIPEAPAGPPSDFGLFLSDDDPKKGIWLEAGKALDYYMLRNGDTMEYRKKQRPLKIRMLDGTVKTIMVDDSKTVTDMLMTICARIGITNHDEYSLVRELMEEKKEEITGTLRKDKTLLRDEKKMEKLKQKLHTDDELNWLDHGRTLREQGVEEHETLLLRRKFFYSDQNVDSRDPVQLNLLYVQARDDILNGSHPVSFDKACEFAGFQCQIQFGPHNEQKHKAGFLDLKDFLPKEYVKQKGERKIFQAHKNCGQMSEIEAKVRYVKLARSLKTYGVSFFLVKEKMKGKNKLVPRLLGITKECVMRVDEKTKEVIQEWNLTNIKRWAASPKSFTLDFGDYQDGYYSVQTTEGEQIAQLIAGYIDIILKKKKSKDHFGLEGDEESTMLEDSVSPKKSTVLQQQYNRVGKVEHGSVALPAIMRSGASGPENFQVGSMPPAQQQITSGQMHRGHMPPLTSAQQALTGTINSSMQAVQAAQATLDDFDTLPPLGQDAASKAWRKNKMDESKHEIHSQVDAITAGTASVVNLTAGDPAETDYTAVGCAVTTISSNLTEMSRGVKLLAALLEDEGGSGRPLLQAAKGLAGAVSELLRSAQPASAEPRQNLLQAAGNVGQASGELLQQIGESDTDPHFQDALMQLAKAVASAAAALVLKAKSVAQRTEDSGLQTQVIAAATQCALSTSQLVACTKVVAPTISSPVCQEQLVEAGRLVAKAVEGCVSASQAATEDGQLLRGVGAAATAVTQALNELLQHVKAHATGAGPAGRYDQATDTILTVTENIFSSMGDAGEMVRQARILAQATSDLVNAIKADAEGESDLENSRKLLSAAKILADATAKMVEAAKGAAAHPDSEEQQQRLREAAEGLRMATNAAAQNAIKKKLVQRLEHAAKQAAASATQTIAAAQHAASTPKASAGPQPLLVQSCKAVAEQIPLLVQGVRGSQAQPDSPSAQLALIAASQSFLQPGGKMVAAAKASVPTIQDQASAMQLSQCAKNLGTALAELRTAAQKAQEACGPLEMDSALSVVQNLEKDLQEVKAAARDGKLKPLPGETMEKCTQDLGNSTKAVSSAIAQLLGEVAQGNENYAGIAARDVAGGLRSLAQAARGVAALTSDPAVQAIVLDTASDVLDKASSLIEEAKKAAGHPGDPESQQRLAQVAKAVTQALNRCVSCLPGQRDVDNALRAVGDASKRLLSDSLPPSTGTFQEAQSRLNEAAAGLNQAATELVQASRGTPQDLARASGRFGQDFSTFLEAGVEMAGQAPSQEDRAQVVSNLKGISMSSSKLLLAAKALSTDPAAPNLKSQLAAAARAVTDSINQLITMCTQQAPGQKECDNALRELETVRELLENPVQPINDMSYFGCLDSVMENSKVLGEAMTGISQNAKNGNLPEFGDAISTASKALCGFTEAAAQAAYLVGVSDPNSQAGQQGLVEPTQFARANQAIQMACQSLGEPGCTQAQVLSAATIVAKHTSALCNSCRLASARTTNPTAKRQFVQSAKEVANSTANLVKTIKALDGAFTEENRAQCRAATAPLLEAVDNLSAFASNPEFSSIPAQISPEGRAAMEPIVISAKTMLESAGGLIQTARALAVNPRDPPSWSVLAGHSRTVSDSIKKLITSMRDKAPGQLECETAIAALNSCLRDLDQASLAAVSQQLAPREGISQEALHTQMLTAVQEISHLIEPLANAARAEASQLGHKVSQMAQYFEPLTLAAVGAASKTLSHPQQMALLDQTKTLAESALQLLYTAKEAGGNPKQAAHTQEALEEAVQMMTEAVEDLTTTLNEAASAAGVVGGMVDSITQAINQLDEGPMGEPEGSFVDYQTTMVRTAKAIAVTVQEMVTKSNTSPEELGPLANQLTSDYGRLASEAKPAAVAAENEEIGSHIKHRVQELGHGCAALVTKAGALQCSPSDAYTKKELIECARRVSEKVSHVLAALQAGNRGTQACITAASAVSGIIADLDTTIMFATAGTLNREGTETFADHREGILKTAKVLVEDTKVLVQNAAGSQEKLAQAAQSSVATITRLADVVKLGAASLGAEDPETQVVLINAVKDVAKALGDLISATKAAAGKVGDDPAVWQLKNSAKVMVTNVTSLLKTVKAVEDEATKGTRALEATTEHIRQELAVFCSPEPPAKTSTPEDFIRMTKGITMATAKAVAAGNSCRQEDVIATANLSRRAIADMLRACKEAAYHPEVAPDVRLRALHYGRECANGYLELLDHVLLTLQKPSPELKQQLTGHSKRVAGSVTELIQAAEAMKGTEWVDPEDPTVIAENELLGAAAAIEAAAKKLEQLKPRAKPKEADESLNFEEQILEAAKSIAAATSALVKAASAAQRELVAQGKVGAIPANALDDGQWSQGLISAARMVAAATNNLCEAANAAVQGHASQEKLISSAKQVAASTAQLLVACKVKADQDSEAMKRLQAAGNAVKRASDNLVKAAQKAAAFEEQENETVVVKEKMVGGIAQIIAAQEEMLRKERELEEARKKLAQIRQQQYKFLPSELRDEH

On to “CEA3-ITGB2 C.ow (CEACAM3 fused to the cytoplasmic domain of Capsaspora owczarzaki integrin β homologue ITGB2 C.ow) F1038A”, for which the other: talin recruitment ratio R in assay [1] (n = 60 cells from three …, parent: est. 2.6) stood at 2.2. Moreover, in assay [1] (parent: est. 64), the other: percentage of cells with talin recruitment R ≥ 2 worked out at 59%.
In the case of “eGFP-tagged human kindlin-2 (from UniProt Q96AC1 1-680) (natural protein)”, the recruitment ratio R (mean) is 2.4 in assay [2] and 3.9 in assay [3].
The like results for “eGFP-tagged paxillin (from UniProt P49023 1-591) (natural protein)” were, in that order, 2.57 and 2.92.
For the substance “eGFP-talin1 (human talin1) (from UniProt Q9Y490 1-2541) (natural protein)”, the recruitment ratio R in assay [4] and in assay [6] was more than 2 each time. For the same substance, the percent of cells with R >= 2 is 85% in assay [2], 85% in assay [5], 85% in assay [3] and 62% in assay [7]. Further, the figures for the recruitment ratio R (mean) in assay [2], in assay [3] and in assay [7] were 3.78, 3.41 and 2.1, respectively.
On to mCherry, for which the recruitment ratio R (mean) in assay [3] turned out to be 1.5.
In the case of “mCherry-talin1 (human talin1) (from UniProt Q9Y490 1-2541) (natural protein)”, in assay [8], the percent of cells with R >= 2 amounted to 17% and the recruitment ratio R (mean) came out at 1.8. Further, in assay [3], the percent of cells with R >= 2 was found to be 85% and the recruitment ratio R (mean) is 2.84.
